Results reported in patent US20230340151A1 (Pfizer, published 2023).

How the values were obtained:
Test in all cases: peptide DELFIA ELISA;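 note: epitope mapping using overlapping 20-mer GUCY2C peptides covering residues 1-440, extracellular into transmembrane domain, coated at 20 µg/ml as target antigen and probed with antibodies or GUCY2C-CD3 bispecifics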
GUCY2C_ECD Peptide 2 = target: T1, GUCY2C_ECD Peptide 2 (human)
T1 peptide: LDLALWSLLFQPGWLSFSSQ
Experimental: (§1) Arrays were reconstituted with acetonitrile to 100 μg/ml and were then further diluted to 20 μg/ml with sodium carbonate/bicarbonate buffer. Purified antibodies or GUCY2c-CD3 bispecifics were then tested by Delfia ELISA for binding to the different peptides using Delfia ELISA methods previously discussed, with diluted peptides used as the target antigen.

GUCY2C_ECD Peptide 4 = target: T2, GUCY2C_ECD Peptide 4 (human)
T2 peptide: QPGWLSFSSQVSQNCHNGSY
Experimental: as §1

GUCY2C_ECD Peptide 7 = target: T3, GUCY2C_ECD Peptide 7 (human)
T3 peptide: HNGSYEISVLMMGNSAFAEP
Experimental: as §1

GUCY2C_ECD Peptide 8 = target: T4, GUCY2C_ECD Peptide 8 (human)
T4 peptide: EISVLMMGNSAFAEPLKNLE
Experimental: as §1

GUCY2C_ECD Peptide 11 = target: T5, GUCY2C_ECD Peptide 11 (human)
T5 peptide: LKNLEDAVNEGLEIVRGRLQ
Experimental: as §1

GUCY2C_ECD Peptide 13 = target: T6, GUCY2C_ECD Peptide 13 (human)
T6 peptide: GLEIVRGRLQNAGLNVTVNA
Experimental: as §1

GUCY2C_ECD Peptide 15 = target: T7, GUCY2C_ECD Peptide 15 (human)
T7 peptide: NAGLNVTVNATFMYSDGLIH
Experimental: as §1

GUCY2C_ECD Peptide 17 = target: T8, GUCY2C_ECD Peptide 17 (human)
T8 peptide: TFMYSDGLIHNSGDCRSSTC
Experimental: as §1

GUCY2C_ECD Peptide 18 = target: T9, GUCY2C_ECD Peptide 18 (human)
T9 peptide: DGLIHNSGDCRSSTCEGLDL
Experimental: as §1

GUCY2C_ECD Peptide 20 = target: T10, GUCY2C_ECD Peptide 20 (human)
T10 peptide: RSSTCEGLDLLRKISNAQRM
Experimental: as §1

GUCY2C_ECD Peptide 27 = target: T11, GUCY2C_ECD Peptide 27 (human)
T11 peptide: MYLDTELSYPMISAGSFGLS
Experimental: as §1

GUCY2C_ECD Peptide 29 = target: T12, GUCY2C_ECD Peptide 29 (human)
T12 peptide: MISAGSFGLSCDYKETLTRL
Experimental: as §1

GUCY2C_ECD Peptide 30 = target: T13, GUCY2C_ECD Peptide 30 (human)
T13 peptide: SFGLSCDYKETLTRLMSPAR
Experimental: as §1

GUCY2C_ECD Peptide 33 = target: T14, GUCY2C_ECD Peptide 33 (human)
T14 peptide: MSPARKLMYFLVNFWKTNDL
Experimental: as §1

GUCY2C_ECD Peptide 34 = target: T15, GUCY2C_ECD Peptide 34 (human)
T15 peptide: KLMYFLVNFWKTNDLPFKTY
Experimental: as §1

GUCY2C_ECD Peptide 39 = target: T16, GUCY2C_ECD Peptide 39 (human)
T16 peptide: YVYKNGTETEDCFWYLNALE
Experimental: as §1

GUCY2C_ECD Peptide 40 = target: T17, GUCY2C_ECD Peptide 40 (human)
T17 peptide: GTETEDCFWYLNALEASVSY
Experimental: as §1

GUCY2C_ECD Peptide 46 = target: T18, GUCY2C_ECD Peptide 46 (human)
T18 peptide: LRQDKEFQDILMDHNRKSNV
Experimental: as §1

GUCY2C_ECD Peptide 47 = target: T19, GUCY2C_ECD Peptide 47 (human)
T19 peptide: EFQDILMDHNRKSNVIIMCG
Experimental: as §1

GUCY2C_ECD Peptide 49 = target: T20, GUCY2C_ECD Peptide 49 (human)
T20 peptide: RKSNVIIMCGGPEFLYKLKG
Experimental: as §1

GUCY2C_ECD Peptide 56 = target: T21, GUCY2C_ECD Peptide 56 (human)
T21 peptide: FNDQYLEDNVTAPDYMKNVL
Experimental: as §1

GUCY2C_ECD Peptide 58 = target: T22, GUCY2C_ECD Peptide 58 (human)
T22 peptide: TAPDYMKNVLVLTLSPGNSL
Experimental: as §1

GUCY2C_ECD Peptide 60 = target: T23, GUCY2C_ECD Peptide 60 (human)
T23 peptide: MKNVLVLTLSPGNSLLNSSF
Experimental: as §1

GUCY2C_ECD Peptide 61 = target: T24, GUCY2C_ECD Peptide 61 (human)
T24 peptide: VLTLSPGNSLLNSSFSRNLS
Experimental: as §1

GUCY2C_ECD Peptide 62 = target: T25, GUCY2C_ECD Peptide 62 (human)
T25 peptide: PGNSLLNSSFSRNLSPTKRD
Experimental: as §1

GUCY2C_ECD Peptide 64 = target: T26, GUCY2C_ECD Peptide 64 (human)
T26 peptide: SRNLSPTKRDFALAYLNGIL
Experimental: as §1

GUCY2C_ECD Peptide 65 = target: T27, GUCY2C_ECD Peptide 65 (human)
T27 peptide: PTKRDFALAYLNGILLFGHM
Experimental: as §1

GUCY2C_ECD Peptide 66 = target: T28, GUCY2C_ECD Peptide 66 (human)
T28 peptide: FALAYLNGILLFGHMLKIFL
Experimental: as §1

GUCY2C_ECD Peptide 68 = target: T29, GUCY2C_ECD Peptide 68 (human)
T29 peptide: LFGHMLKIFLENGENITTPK
Experimental: as §1

GUCY2C_ECD Peptide 71 = target: T30, GUCY2C_ECD Peptide 71 (human)
T30 peptide: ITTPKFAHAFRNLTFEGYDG
Experimental: as §1

GUCY2C_ECD Peptide 72 = target: T31, GUCY2C_ECD Peptide 72 (human)
T31 peptide: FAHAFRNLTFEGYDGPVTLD
Experimental: as §1

GUCY2C_ECD Peptide 73 = target: T32, GUCY2C_ECD Peptide 73 (human)
T32 peptide: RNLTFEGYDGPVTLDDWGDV
Experimental: as §1

GUCY2C_ECD Peptide 76 = target: T33, GUCY2C_ECD Peptide 76 (human)
T33 peptide: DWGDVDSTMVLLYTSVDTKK
Experimental: as §1

GUCY2C_ECD Peptide 78 = target: T34, GUCY2C_ECD Peptide 78 (human)
T34 peptide: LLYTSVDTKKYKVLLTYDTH
Experimental: as §1

GUCY2C_ECD Peptide 79 = target: T35, GUCY2C_ECD Peptide 79 (human)
T35 peptide: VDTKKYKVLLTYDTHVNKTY
Experimental: as §1

GUCY2C_ECD Peptide 88 = target: T36, GUCY2C_ECD Peptide 88 (human)
T36 peptide: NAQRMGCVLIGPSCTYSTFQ
Experimental: as §1

B1: GUCY2C-1608 (bispecific antibody)
chain 1: DIQLTQSPSSLSASVGDRVTITCRASESVDYYGSSLLQWYQQKPGKAPKLLIYAASKLASGVPSRFSGSGSGTDFTLTISSLQPEDFATYYCQQTRKAYTFGQGTKLEIKGGGSGGGGEVQLVESGGGLVQPGGSLRLSCAASGFTFSDYYMTWVRQAPGKGLEWVAFIRNQARGYTSDHNPSVKGRFTISRDNAKNSLYLQMNSLRAEDTAVYYCARDRPSYYVLDYWGQGTTVTVSSGCPPCPAPEAAGAPSVFLFPPKPKDTLMISRTPEVTCVVVDVSHEDPEVKFNWYVDGVEVHNAKTKPREEQYNSTYRVVSVLTVLHQDWLNGKEYKCKVSNKALPAPIEKTISKAKGQPREPQVCTLPPSREEMTKNQVSLWCLVKGFYPSDIAVEWESNGQPENNYKTTPPVLDSDGSFFLYSKLTVDKSRWQQGNVFSCSVMHEALHNHYTQKSLSLSPG
chain 2: DIQMTQSPSSLSASVGDRVTITCTSSQSLFNVRSQKNYLAWYQQKPGKAPKLLIYWASTRESGVPSRFSGSGSGTDFTLTISSLQPEDFATYYCKQSYDLFTFGGGTKVEIKGGGGSGGGGEVQLVESGGGLVQPGGSLRLSCAASGFTFSSYWMHWVRQAPGKGLEWIGEIKPSNELTNVHEKFKDRFTISVDKAKNSAYLQMNSLRAEDTAVYYCTRTITTTEGYWFFDVWGQGTLVTVSSGCPPCPAPEAAGAPSVFLFPPKPKDTLMISRTPEVTCVVVDVSHEDPEVKFNWYVDGVEVHNAKTKPREEQYNSTYRVVSVLTVLHQDWLNGKEYKCKVSNKALPAPIEKTISKAKGQPREPQVYTLPPCREEMTKNQVSLSCAVKGFYPSDIAVEWESNGQPENNYKTTPPVLDSDGSFFLVSKLTVDKSRWQQGNVFSCSVMHEALHNHYTQKSLSLSPG
notes: also called GUCY2c CD3 bispecific
DELFIA TRF (GUCY2C_ECD Peptide 2): 106 | DELFIA TRF (GUCY2C_ECD Peptide 4): 125 | DELFIA TRF (GUCY2C_ECD Peptide 7): 136 | DELFIA TRF (GUCY2C_ECD Peptide 8): 148 | DELFIA TRF (GUCY2C_ECD Peptide 11): 101 | DELFIA TRF (GUCY2C_ECD Peptide 13): 102 | DELFIA TRF (GUCY2C_ECD Peptide 15): 88.8 | DELFIA TRF (GUCY2C_ECD Peptide 17): 112 | DELFIA TRF (GUCY2C_ECD Peptide 18): 126 | DELFIA TRF (GUCY2C_ECD Peptide 20): 3210 | DELFIA TRF (GUCY2C_ECD Peptide 27): 105 | DELFIA TRF (GUCY2C_ECD Peptide 29): 101 | DELFIA TRF (GUCY2C_ECD Peptide 30): 125 | DELFIA TRF (GUCY2C_ECD Peptide 33): 87.5 | DELFIA TRF (GUCY2C_ECD Peptide 34): 99 | DELFIA TRF (GUCY2C_ECD Peptide 39): 86.5 | DELFIA TRF (GUCY2C_ECD Peptide 40): 85.2 | DELFIA TRF (GUCY2C_ECD Peptide 46): 106 | DELFIA TRF (GUCY2C_ECD Peptide 47): 104 | DELFIA TRF (GUCY2C_ECD Peptide 49): 129 | DELFIA TRF (GUCY2C_ECD Peptide 56): 81 | DELFIA TRF (GUCY2C_ECD Peptide 58): 98.5 | DELFIA TRF (GUCY2C_ECD Peptide 60): 150 | DELFIA TRF (GUCY2C_ECD Peptide 61): 126 | DELFIA TRF (GUCY2C_ECD Peptide 62): 91.2 | DELFIA TRF (GUCY2C_ECD Peptide 64): 116 | DELFIA TRF (GUCY2C_ECD Peptide 65): 103 | DELFIA TRF (GUCY2C_ECD Peptide 66): 114 | DELFIA TRF (GUCY2C_ECD Peptide 68): 73.5 | DELFIA TRF (GUCY2C_ECD Peptide 71): 105 | DELFIA TRF (GUCY2C_ECD Peptide 72): 116 | DELFIA TRF (GUCY2C_ECD Peptide 73): 116 | DELFIA TRF (GUCY2C_ECD Peptide 76): 102 | DELFIA TRF (GUCY2C_ECD Peptide 78): 97.8 | DELFIA TRF (GUCY2C_ECD Peptide 79): 130 | DELFIA TRF (GUCY2C_ECD Peptide 88): 120
